Reference: paper PMC10858965

Assays:
Assay in all cases: filter binding
Conditions in all cases: 1 mM MgCl2 in FB buffer; Filter binding: 3 parts FB buffer (50 mM Tris pH 8.0, 1 mM MgCl2) + 1 part SEC buffer (20 mM HEPES pH 7.5, 150 mM NaCl, 1 mM DTT, 10% glycerol), 5 min, room …
[1] = system: Lig4 mDBD1;XRCC4 (Xenopus laevis;Xenopus laevis?)
[2] = system: Lig4 mDBD2;XRCC4 (Xenopus laevis;Xenopus laevis?)
[3] = system: Lig4 delta-DBD;XRCC4 (Xenopus laevis;Xenopus laevis?)
[4] = system: Lig4 mDBD1+2;XRCC4 (Xenopus laevis;Xenopus laevis?)

## ~1 kb circular DNA
[1]
  binding signal (fold weaker than WT): 10
[2]
  binding signal (fold weaker than WT): 10
[3]
  binding signal (fold weaker than WT): 30
[4]
  binding signal (fold weaker than WT): 30
